We go through three substances from patent US10154957B2, “Microneedle device having a peptide therapeutic agent and an amino acid and methods of making and using the same” (3M INNOVATIVE PROPERTIES COMPANY, priority 2011, dated 2018).

Type in all cases: physicochemical
Data set [1] in a line: Stability of salmon calcitonin in coating on flood-coated microneedle arrays stored at 40° C./96% RH (HPLC). The settings on record: salmon calcitonin 5 mg/mL in PBS. Here is the method: (§1) The protein or polypeptide content in the formulation coated on the microneedle arrays was determined using an Agilent 1100 HPLC system (Agilent Technologies, Wilmington, Del.) equipped with a binary pump, well-plated thermostated autosampler, thermostated column compartment, and a diode array UV detector. A Zorbax 300SB-C8 column (Agilent Technologies, Wilmington, Del.) having a 5 μm particle size and 2.1×150 mm inner diameter was used for the separations. The column was maintained at 50° C. The mobile phase consisted of two eluents. Eluent A was 0.1% TFA (trifluoroacetic acid) in water and eluent B was 0.1% TFA in acetonitrile (Spectrum Chemical, New Brunswick, N.J.). A linear gradient from 80/20 to 50/50 (A/B) was applied over 30 minutes. The flow rate was 0.4 mL/minute and the UV detection wavelength was set at 214 nm. The total run time was 34 minutes and the sample injection volume was 15 μL.
(§2) A sample formulation containing 5 mg/mL of salmon calcitonin and 12 mg/mL of L-histidine monohydrochloride (His-HCl) in PBS was prepared. The pH of the sample formulation was 5.5. A control formulation was also prepared containing 5 mg/mL of salmon calcitonin in PBS. […] The pH of the control formulation was 6.0-6.5. Microneedle arrays were coated with either the sample or the control formulation. The coating was applied by dropwise addition of 50 μL of the formulation to the portion of the array defined by the octagon shaped pattern of microneedles. The flood coated arrays (both sample and control formulation coated) were dried in an oven at 35° C. for about 15 hours.
(§3) After drying, the coated arrays were placed in a storage chamber that was maintained at 40° C. and 96% relative humidity (RH). The salmon calcitonin content of the coated arrays was determined following storage in the chamber for 1, 3, 7, and 14 days. At the designated time point, an array was taken from the chamber and washed with PBS (1 mL) to remove the coating from the array. An aliquot of the resulting wash solution was analyzed for salmon calcitonin content using the HPLC method described above. Reference standards were prepared by measuring the initial salmon calcitonin content of freshly coated arrays (both sample and control formulation coated). The arrays used as reference standards were stored in a refrigerator at about 4° C. and analyzed within one day of being prepared. The percentage of undegraded salmon calcitonin remaining in the coating at each time point was determined by measuring the peak area for salmon calcitonin in the selected coating and dividing it by the peak area measured for salmon calcitonin in the corresponding reference standard.
The same procedure as described in Example 3 was used with the exception that the sample formulation contained 12 mg/mL of L-arginine hydrochloride, instead of L-histidine monohydrochloride. The pH of the sample formulation was 6.0-6.5.

A short description of data set [2]: Stability of lysozyme in coating on flood-coated microneedle arrays stored at 40° C./96% RH (HPLC). The settings on record: lysozyme 10 mg/mL in PBS. Here is the method: as §1
as §2, with “containing 10” for “containing 5”, “of lysozyme” for “of salmon calcitonin”, “was 5.5-6.0.” for “was 5.5.”, “was 6.5.” for “was 6.0-6.5.”
as §3, with “lysozyme” for “salmon calcitonin”, “(2” for “(1”, “lysozyme” for “initial salmon calcitonin”
The same procedure as described in Example 7 was used with the exception that the sample formulation contained 12 mg/mL of L-arginine hydrochloride, instead of L-histidine monohydrochloride. The pH of the sample formulation was 6.5.

Data set [3] is described as follows: Stability of PTH in coating on flood-coated microneedle arrays stored at 40° C./96% RH (HPLC). The settings on record: PTH 10 mg/mL in PBS. The procedure: as §1
Microneedle arrays were coated with either the sample or the control formulation. The coating was applied by dropwise addition of 50 μL of the formulation to the portion of the array defined by the octagon shaped pattern of microneedles. The flood coated arrays (both sample and control formulation coated) were dried in an oven at 35° C. for about 15 hours.
After drying, the coated arrays were placed in a storage chamber that was maintained at 40° C. and 96% relative humidity (RH). […] The arrays used as reference standards were stored in a refrigerator at about 4° C. and analyzed within one day of being prepared.

[4] abbreviates: Amino Acid L-Arginine (Arg-HCl 12 mg/mL), Day 1 at 40° C./96% RH.
Where [5] appears, read: Amino Acid L-Arginine (Arg-HCl 12 mg/mL), Day 3 at 40° C./96% RH.
Where [6] appears, read: Amino Acid L-Arginine (Arg-HCl 12 mg/mL), Day 7 at 40° C./96% RH.
Where [7] appears, read: Amino Acid L-Arginine (Arg-HCl 12 mg/mL), Day 14 at 40° C./96% RH.
[8] abbreviates: Amino Acid L-Arginine (Arg-HCl 12 mg/mL), Initial.
Setting [9] is: Amino Acid L-Histidine (His-HCl 12 mg/mL), Day 1 at 40° C./96% RH.
Setting [10] is: Amino Acid L-Histidine (His-HCl 12 mg/mL), Day 3 at 40° C./96% RH.
[11] abbreviates: Amino Acid L-Histidine (His-HCl 12 mg/mL), Day 7 at 40° C./96% RH.
Where [12] appears, read: Amino Acid L-Histidine (His-HCl 12 mg/mL), Day 14 at 40° C./96% RH.
Where [13] appears, read: Amino Acid L-Histidine (His-HCl 12 mg/mL), Initial.
Setting [14] is: Amino Acid None (control), Day 1 at 40° C./96% RH.
Where [15] appears, read: Amino Acid None (control), Day 3 at 40° C./96% RH.
The mark [16] stands for this setting: Amino Acid None (control), Day 7 at 40° C./96% RH.
The mark [17] stands for this setting: Amino Acid None (control), Day 14 at 40° C./96% RH.
[18] abbreviates: Amino Acid None (control), Initial.

For the substance Salmon calcitonin, the “Percent of Initial Salmon Calcitonin Content in the Coating” value was determined as 5.8% in data set [1] (setting [4]); 0.3% in data set [1] (setting [5]); 0% in data set [1] (setting [6]); 0% in data set [1] (setting [7]); 100% in data set [1] (setting [8]); 30.3% in data set [1] (setting [9]). For the same substance, the “Percent of Initial Salmon Calcitonin Content in the Coating” value in data set [1] (setting [10]) is reported as 31.7%; in data set [1] (setting [11]), 7.5%; in data set [1] (setting [12]), 2.7%; in data set [1] (setting [13]), 100%; in data set [1] (setting [14]), 21.5%; in data set [1] (setting [15]), 0.9%. The “Percent of Initial Salmon Calcitonin Content in the Coating” value in data set [1] (setting [16]) is given as 0.1%; in data set [1] (setting [17]), 0%; in data set [1] (setting [18]) it was 100%.
Consider lysozyme, for which the “Percent of Initial Lysozyme Content in the Coating” value (“Percent of Initial Lysozyme Content” below) was found to be 52.6% in data set [2] (setting [4]); 33.1% in data set [2] (setting [5]); 22.4% in data set [2] (setting [6]); 23.0% in data set [2] (setting [7]); 100% in data set [2] (setting [8]); 100.0% in data set [2] (setting [9]). The “Percent of Initial Lysozyme Content” value was determined as 80.6% in data set [2] (setting [10]); 60.1% in data set [2] (setting [11]); 53.3% in data set [2] (setting [12]); 100% in data set [2] (setting [13]); 26.9% in data set [2] (setting [14]); 4.4% in data set [2] (setting [15]). The “Percent of Initial Lysozyme Content” value in data set [2] (setting [16]) is listed as 1.9%; in data set [2] (setting [17]) it was 1.9%; in data set [2] (setting [18]), 100%.
With “parathyroid hormone (1-34) (human) [PTH]”, the “Percent of Initial PTH Content in the Coating” value (“Percent of Initial PTH Content” for short) was 3.5% in data set [3] (setting [4]); 0.8% in data set [3] (setting [5]); 0.4% in data set [3] (setting [6]); 0% in data set [3] (setting [7]); 100% in data set [3] (setting [8]); 85.2% in data set [3] (setting [9]). For the same substance, the “Percent of Initial PTH Content” value in data set [3] (setting [10]) amounted to 60.3%; in data set [3] (setting [11]) it was 23.1%; in data set [3] (setting [13]), 100%; in data set [3] (setting [14]) it was 1.3%; in data set [3] (setting [15]) it was 0%; in data set [3] (setting [16]), 0%. Further, the figures for the “Percent of Initial PTH Content” value in data set [3] (setting [17]) and in data set [3] (setting [18]) were 0% and 100%, respectively.
